From the supplement of paper PMC10126150
± gives the standard deviation of the averaged measurements.

System: ATP
Assay: switch fluorescence ratio, 500 uM ATP over buffer (Cy3 cluster intensity, sum of 5 cycles each) (fold (ratio)); higher = stronger signal-on switching upon ATP binding; sequences stand for … in TCGTCGGCAGCGTCAGATGTGTATAAGAGACAGTTTTTTTTTTTTTTTTTTTTTTTTT…TC
Conditions: aptamer strand: ATP DNA aptamer (quencher-CACCTGGGGGAGTATTGCGGAGGAAGG + anchor), 100 nM annealed; ATP concentration: 500 uM
In short: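 Cy3-labelled switching-strand clusters on a modified Illumina MiSeq flow-cell were annealed to 100 nM quencher-labelled ATP aptamer and imaged first in selection buffer, then after 15 min with 500 uM ATP at 22 °C. NaOH stripping and re-annealing separated each of five buffer/ATP cycles, and clusters outside 100-1000 RFU were excluded. The fluorescence ratio sums target-cycle Cy3 intensity over buffer-cycle Cy3 intensity per cluster and averages it per switch-domain sequence.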
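Also: ATP exposure 15 min at 22 °C before imaging.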

Sequence | switch fluorescence ratio
AGACGGCAGC | 0.992 ± 0.035
GTCGCTAATG | 0.996 ± 0.016
GGGTCGATTT | 0.999 ± 0.01
CATTGGGGGA | 0.983 ± 0.014
GGGTGCGTTC | 0.964 ± 0.027
ACAGAATCGA | 1.02 ± 0.032
TCCGGAGGCA | 2.2 ± 0.059
TACTTTAATT | 1.04 ± 0.014
GCGCGCGACT | 1.002 ± 0.0092
CATAGGCATT | 1.03 ± 0.016
AGTTTTGGAG | 1 ± 0.015
AAATCAAACG | 1.05 ± 0.018
AGACACTTAA | 1.04 ± 0.023
ATGTAGCTGG | 1.07 ± 0.033
TGCTCACGGT | 1.02 ± 0.041
AAGCAGGGAT | 0.999 ± 0.033
GGTCCTAGTC | 0.946 ± 0.12
GGCCTCTTGG | 1 ± 0.011
TCAAATGGGC | 0.9965 ± 0.0031
GCTCATTTCG | 1.02 ± 0.042
ATGTAAAGCA | 1.02 ± 0.036
AGTAAAGGGA | 1.02 ± 0.029
ATCCCTTGAG | 0.992 ± 0.032

Sequence | switch fluorescence ratio
CGTCGGGGCG | 1.02 ± 0.036
TTTGAGGGTA | 1.03 ± 0.1
TAAGGCAC | 1.04 ± 0.017
GGGGATATTC | 1 ± 0.023
TAGGGGTCTG | 1.032 ± 0.0059
TGAGCCATCG | 0.987 ± 0.02
AATGGCGGCC | 1.03 ± 0.039
GCCCCGGGTT | 1.36 ± 0.37
GGGGGAGGGC | 1.01 ± 0.031
CGATTGTGGG | 0.9962 ± 0.0092
TTAAAGACGT | 1.51 ± 0.7
GGGGATGCTG | 0.902 ± 0.21
ACTTCGAGCG | 1.08 ± 0.02
TCTGTCTCTG | 1.01 ± 0.014
GCTTGTATGA | 1.013 ± 0.0032
ACCAGGTGGT | 1.78 ± 1.1
ATTAAATAAC | 1.02 ± 0.02
CAGGACCCGA | 0.99 ± 0.025
TAGGATAGGG | 0.9972 ± 0.0021
TTCGGATGGG | 1 ± 0.034
ATATTTTAGG | 0.996 ± 0.031
CCCAGTAGCG | 1.03 ± 0.017
TTACATTTGG | 0.9846 ± 0.0036

Sequence | switch fluorescence ratio
GAATGGGTCG | 0.989 ± 0.033
GGCGATTTTT | 1.013 ± 0.0022
GTCGGGAGGA | 0.998 ± 0.025
GGACCAAGGT | 1.01 ± 0.014
GTTGGGCCGA | 1.03 ± 0.038
ACTCGAGGGG | 1.01 ± 0.041
ATCTGTGAGG | 1.019 ± 0.0063
AGGCGAGGGG | 0.988 ± 0.032
CAGTGGTGGG | 1.01 ± 0.04
AGGCGGGTAA | 1.022 ± 0.0082
AAGGAGGGAG | 0.992 ± 0.026
CAATGTGGCG | 0.922 ± 0.038
GCAGTCATTA | 1.037 ± 0.0019
CATGGCGAAG | 1 ± 0.034
CAGTTAGAAA | 0.9952 ± 0.0075
GAATCGTAGG | 0.986 ± 0.016
AAAATGGAAA | 1.028 ± 0.0035
GCAGGAAGGG | 0.977 ± 0.019
GGAGAAGGGA | 0.973 ± 0.062
GGTAGGAGTA | 0.932 ± 0.051
CGTATTGGGG | 1.04 ± 0.017
ACTGTGAATT | 1.02 ± 0.011
GTGCGATTGG | 1.033 ± 0.0092

Sequence | switch fluorescence ratio
TTGAGATTAT | 0.986 ± 0.015
TACGTGTGGG | 1.02 ± 0.038
GTTTGAGGGG | 0.992 ± 0.012
AGTGATGCTT | 0.992 ± 0.036
GAACGTTTGG | 1.04 ± 0.074
TAAGGGGTTT | 1.03 ± 0.058
ATTATGGCGT | 0.999 ± 0.013
TTCGTGACCT | 1.1 ± 0.094
GCTAGGAACT | 0.979 ± 0.019
AGACAATTAG | 1.01 ± 0.093
TCGATCATAA | 0.9901 ± 0.0015
TTTGTTTCTT | 0.977 ± 0.032
TAAGATGTTG | 1.01 ± 0.019
ATGCGCTAAT | 1.07 ± 0.013
TAACTTTGGC | 0.9536 ± 0.0091
TCCCGGTAGT | 1.01 ± 0.019
CTCTTTGCC | 1.17 ± 0.27
TGGTTTAAAT | 1.04 ± 0.054
AAATTCCGTG | 0.978 ± 0.043
CTAGGAGCTT | 1 ± 0.044
CCGGTGTGTA | 1.03 ± 0.029
AGGTAGGTTT | 0.99 ± 0.017
TCATTTAGAG | 0.977 ± 0.019

Sequence | switch fluorescence ratio
GGTGTCATAT | 0.984 ± 0.024
GGGAGGGACC | 1.01 ± 0.011
GACAGACGGG | 1.13 ± 0.049
ATTGGTCAGC | 0.982 ± 0.035
TTTGGGGGGG | 1 ± 0.051
AGCAAGAGGC | 1.26 ± 0.34
TTGGGAGTAC | 0.942 ± 0.059
GAGATTAGGT | 0.977 ± 0.015
GTTAGTAGAT | 1.01 ± 0.019
GTTGGGTAAA | 0.983 ± 0.014
GATCATAAAA | 1.02 ± 0.017
GCTTGAGGCT | 0.959 ± 0.06
AAGATATAT | 0.984 ± 0.035
TTTACAGTGG | 1.05 ± 0.057
GGAGATTGGT | 0.983 ± 0.024
GGTCGCCCAG | 1.01 ± 0.035
CTGCGGGGAT | 1.02 ± 0.027
TAATTAAGGA | 1.004 ± 0.0096
ATTCAAATGT | 1 ± 0.03
TGTAGAGGGA | 1.005 ± 0.0046
TCTGAACGGG | 1.02 ± 0.011
GCTGAGGGAA | 1.01 ± 0.028
AAAGGGTAAT | 0.984 ± 0.018

Sequence | switch fluorescence ratio
AACTCCTAAG | 1.03 ± 0.021
AATCACGGTG | 1.05 ± 0.052
TCGGTTCTAC | 0.9985 ± 0.0099
AAATAGTGTG | 1 ± 0.033
GATATTTGGA | 0.996 ± 0.041
GCAGCCTGTT | 0.994 ± 0.011
TGACAAAGGG | 0.988 ± 0.024
GAAGTTTTGT | 1.016 ± 0.0088
TTTGGGGCGT | 1 ± 0.035
GGGAGTTGAA | 0.9747 ± 0.0083
AAAAGGGAGC | 1.14 ± 0.14
ATTTGAATGG | 0.987 ± 0.027
GGGAGCTAGG | 0.9709 ± 0.0038
TTCATATTAT | 0.9472 ± 0.0062
TCTATTGGGA | 0.981 ± 0.028
GAGAGTCCTT | 0.997 ± 0.015
GGGAAGACCG | 0.9921 ± 0.004
CTAGGTAGGG | 0.997 ± 0.035
CCAAGGTTCG | 0.945 ± 0.053
AGGTAATGAA | 0.967 ± 0.023
CGGGGAAAGC | 0.985 ± 0.027
CAATTCGCTA | 1.21 ± 0.089
TTTCATGTCT | 0.992 ± 0.019

Sequence | switch fluorescence ratio
CACTGGAGGG | 0.9937 ± 0.0042
ACGACTGTAG | 1.02 ± 0.029
CTACCAGGGA | 1.149 ± 0.0019
CGGATACGCC | 1.09 ± 0.028
TCTCATAGTA | 0.997 ± 0.047
TTGGGGAGGC | 0.9835 ± 0.0015
TGATCCGGAG | 1.08 ± 0.038
TGGAGGGGTT | 1.02 ± 0.037
TGATTCCGCT | 1.41 ± 0.025
GAAGGTTCAT | 0.961 ± 0.022
CCTGAGTTCG | 1.39 ± 0.21
CGGGTTAGTT | 1.002 ± 0.01
AGGTTTTGGA | 0.98 ± 0.021
GGGAATTAAT | 1.04 ± 0.023
TGGGAGAGTA | 0.996 ± 0.034
TACGTCCCGA | 1.01 ± 0.045
TCGAAAGGCA | 1.04 ± 0.031
CGCCGTTGCG | 0.989 ± 0.065
AAAGATTCGA | 0.996 ± 0.01
